Measured values reported in patent publication US10337022B2, “Methods of increasing root biomass in plants” (Agresearch Limited, priority 2014, dated 2019).

Assays:
NINJA = molecular target: T1, NINJA (Arabidopsis thaliana, UniProt Q9SV55); experiment: BiFC interaction with NINJA in Nicotiana benthamiana leaves; assay type: cell-based; settings: in planta
T1 construct: expressed in transfected cells; host or cells: Nicotiana benthamiana leaves (Agrobacterium infiltration)
Description: (§1) The binary BiFC-Gateway YFP vectors pDEST-VYNE(R)^GW (Venus aa 1-173) and pDEST-VYCE(R)^GW (Venus aa 156-239) with N-terminal fusions, were used to construct the following vectors; pDESTnYFP-BZR1, pDESTnYFP-NINJA, pDESTnYFP-PPD1, pDESTcYFP-BZR1, pDESTcYFP-PPD1, pDESTcYFP-PPD1Δppd, pDESTcYFP-PPD1Δtify and pDESTcYFP-PPD1Δjas*. […] Plasmids for co-immunoprecipitation: A synthesised DNA construct encoding PPD1 with a 3×c-myc C-terminal fusion was sub-cloned into pRSh1 to produce pRSh1-PPD1-3×c-myc, while the NINJA cDNA sequence was sub-cloned into pB7FWG2,0 (Karimi et al 2002, Trends Plant Sci. 7, 193-195) to construct pB7FWG2-NINJA-GFP.
(§2) For infiltration Agrobacterium tumefaciens GV3101 strains containing the binary vectors were re-suspended from plates and prepared for transformation as described for the LUC assay. All YFP and expression strains were mixed in ratios of 1:1 (vol/vol) with the addition of strain P19 at 1/10th volume. Five leaf discs were sampled from each infiltrated leaf after 40 h. Two hours prior to sampling for microscopic fluorescence observations leaves were infiltrated with a 1 μg/ml DAPI solution to stain nuclei. YFP fluorescence and DAPI staining was detected using an Olympus Fluoview FV10i confocal laser scanning microscope. Each experiment was repeated twice.

DELLA (RGA1) = molecular target: T2, DELLA (RGA1) (Arabidopsis thaliana, UniProt Q9SLH3); experiment: Yeast two-hybrid (Y2H) interaction with DELLA (RGA1); assay type: binding; settings: PPD1-DBD as bait, selective medium with 15 mM 3AT
T2 construct: expressed in transfected cells; host or cells: yeast strain MaV203
T2 sequence (Q9SLH3 with tags, fused parts or gaps): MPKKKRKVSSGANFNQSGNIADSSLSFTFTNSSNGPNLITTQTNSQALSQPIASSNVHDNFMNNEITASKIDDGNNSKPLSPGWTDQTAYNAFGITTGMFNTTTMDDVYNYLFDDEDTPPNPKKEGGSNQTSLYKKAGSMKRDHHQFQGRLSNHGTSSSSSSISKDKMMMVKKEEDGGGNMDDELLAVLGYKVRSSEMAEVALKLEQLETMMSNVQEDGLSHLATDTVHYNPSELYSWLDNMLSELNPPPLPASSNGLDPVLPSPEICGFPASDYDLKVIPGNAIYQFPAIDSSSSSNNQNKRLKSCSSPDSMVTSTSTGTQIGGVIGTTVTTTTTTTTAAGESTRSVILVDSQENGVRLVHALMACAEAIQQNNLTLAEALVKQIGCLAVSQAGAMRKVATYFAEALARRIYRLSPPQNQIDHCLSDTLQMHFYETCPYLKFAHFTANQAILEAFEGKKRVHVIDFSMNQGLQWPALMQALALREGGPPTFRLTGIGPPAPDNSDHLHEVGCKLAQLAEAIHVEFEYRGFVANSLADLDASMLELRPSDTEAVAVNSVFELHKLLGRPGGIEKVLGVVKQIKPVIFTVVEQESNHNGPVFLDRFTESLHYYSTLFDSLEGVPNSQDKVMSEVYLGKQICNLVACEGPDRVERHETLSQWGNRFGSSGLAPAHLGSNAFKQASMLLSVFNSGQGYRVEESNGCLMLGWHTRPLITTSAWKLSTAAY
Description: The ProQuest two-hybrid system (Invitrogen) was used to analyse interactions between PPD1, and RGA1. Full length coding sequences of PPD1, together with truncation or deletion derivatives of PPD1 (PPD1Δppd, PPD1Δtify, and PPD1Δjas*) (FIG. 4), were Gateway sub-cloned into pDEST32 (N-terminal GAL4DBD) or pDEST22 (N-terminal GAL4AD). When translated these generated the following peptide sequences od SEQ ID NO: 58, 68, 69, 70, 71, 72, which are PPD1-DBD, RGA1, RGA1-AD, PPD1-ppd-DBD, PPD1-tify-DBD, PP1-jas*-DBD respectively.
Combinations of bait and prey constructs were used to co-transform yeast strain MaV203 (Invitrogen), with selection on synthetic dropout (SD) SD/-Leu/-Trp agar plates. Transformed strains were tested for interactions using 10 μl droplets of 1 in 10 and 1 in 100 dilutions on SD/-Leu/-Trp/-His plates with different concentrations of 3-aminotriazol (3-AT) (Sigma). The PPD1-RGA1 interaction was tested with PPD1-DBD used as bait. Transformed yeast was spotted as a ten-fold dilution on control medium (−2) or selective medium (−3) with 15 mM 3AT. Controls were empty vectors, DBD, GAL4 DNA binding domain, AD, GAL4 activation domain (FIG. 4).

BZR1 = molecular target: T3, BZR1 (Arabidopsis thaliana, UniProt Q8S307); experiment: BiFC interaction with BZR1 in Nicotiana benthamiana leaves; assay type: cell-based
T3 construct: expressed in transfected cells; host or cells: Nicotiana benthamiana leaves (Agrobacterium infiltration)
T3 sequence (Q8S307 1-336): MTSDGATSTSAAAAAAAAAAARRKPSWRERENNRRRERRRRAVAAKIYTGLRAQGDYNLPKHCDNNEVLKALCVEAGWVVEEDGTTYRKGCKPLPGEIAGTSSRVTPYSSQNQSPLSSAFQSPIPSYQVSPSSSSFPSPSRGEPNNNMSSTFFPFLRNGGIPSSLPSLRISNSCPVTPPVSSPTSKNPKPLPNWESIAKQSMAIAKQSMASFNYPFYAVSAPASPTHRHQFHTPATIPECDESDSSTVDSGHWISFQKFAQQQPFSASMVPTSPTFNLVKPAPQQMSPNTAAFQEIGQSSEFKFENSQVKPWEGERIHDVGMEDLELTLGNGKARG
Description: as §1, §2

T1 sequence (Q9SV55 with tags, fused parts or gaps): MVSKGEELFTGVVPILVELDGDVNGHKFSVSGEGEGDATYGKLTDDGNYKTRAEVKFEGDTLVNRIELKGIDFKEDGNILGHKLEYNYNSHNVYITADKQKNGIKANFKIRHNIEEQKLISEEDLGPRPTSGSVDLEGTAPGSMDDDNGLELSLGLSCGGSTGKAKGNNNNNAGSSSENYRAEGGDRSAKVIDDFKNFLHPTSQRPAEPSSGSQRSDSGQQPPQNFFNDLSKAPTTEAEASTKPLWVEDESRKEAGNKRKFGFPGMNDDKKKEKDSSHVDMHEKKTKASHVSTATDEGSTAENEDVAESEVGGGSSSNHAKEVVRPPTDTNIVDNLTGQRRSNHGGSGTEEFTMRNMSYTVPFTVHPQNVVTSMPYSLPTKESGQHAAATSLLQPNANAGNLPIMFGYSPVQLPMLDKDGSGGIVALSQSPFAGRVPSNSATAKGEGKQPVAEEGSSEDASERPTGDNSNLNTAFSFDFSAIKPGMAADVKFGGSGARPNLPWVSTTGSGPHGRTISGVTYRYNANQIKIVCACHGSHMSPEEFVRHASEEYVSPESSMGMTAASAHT

B1: Arabidopsis PPD: Arabidopsis thaliana PEAPOD 1 protein, At4g14713, SEQ ID NO: 1 (protein, listed as Arabidopsis thaliana)
chain: MDVGVSPAKSILAKPLKLLTEEDISQLTREDCRKFLKDKGMRRPSWNKSQAIQQVLSLKALYEPGDDSGAGIFRKILVSQPVNPPRVTTTLIEPSNELEACGRVSYPEDNGACHRMDSPRSAEFSGGSGHFVSEKDGHKTTISPRSPAETSELVGQMTIFYSGKVNVYDGIPPEKARSIMHFAANPIDLPENGIFASSRMISKLISKEKMMELPQKGLEKANSSRDSGMEGQANRKVSLQRYREKRKDRKFSKAKKCPGVASSSLEMFLNCQPRMKAAYSQNLGCTGSPLHSQSPESQTKSPNLSVDLNSEGI
What does the source list for B1?
BiFC interaction with NINJA (NINJA): interacted with NINJA in plants; Y2H binding to DELLA (RGA1) (DELLA (RGA1)): can directly bind; BiFC interaction with BZR1 (BZR1; fully expanded leaves, co-expression of NINJA): restored; BiFC interaction with BZR1 (BZR1; pavement cells of immature Nicotiana benthamiana leaves): appears to interact with BZR1 in the nucleus
